# Assay results reported in patent US20260078146A1, “EPHA2 TARGETING AGENTS AND USES THEREOF” (The Regents of the University of California, priority 2022, published 2026).
# *1 amine or outer side, *2 acyl side, *3 side chain or, on linkers, in order; H or OH if unused. Where no end group is shown, it is not given here. [ ]: non-standard residue; d: D form. The star is where a group is joined. 2‑CF3‑Bip = 4-(2-trifluoromethylphenyl)-L-phenylalanine, O=C([C@H](Cc1ccc(-c2ccccc2C(F)(F)F)cc1)N[*:1])[*:2]; Phe(2-NH2) = O=C([C@H](Cc1ccccc1N[*:3])N[*:1])[*:2]; Acetyl(2-(piperazin-1-yl)) = O=C(CN1CCNCC1)*; Chg = N[C@H](C(=O)O)C1CCCCC1; GABA = NCCCC(=O)O; βAla = NCCC(=O)O
# What was measured:
# [1] = 8 mg/Kg daily, IV, Balb/C mice, 3 mice
# MIA PaCa-2 tumors = experiment: Tumor xenograft with MIA PaCa-2 cells; type: in vivo, nu/nu mice
# [2] = molecular target: T1, EphA2 ligand binding domain (EphA2-LBD), recombinant (UniProt P29317 27-200, limits assumed); experiment: DELFIA displacement; competitor: immobilised 123B9-Biotin
# T1 construct: also called EphA2 protein; isolated EphA2-LBD
# T1 sequence (P29317 27-200 limits assumed): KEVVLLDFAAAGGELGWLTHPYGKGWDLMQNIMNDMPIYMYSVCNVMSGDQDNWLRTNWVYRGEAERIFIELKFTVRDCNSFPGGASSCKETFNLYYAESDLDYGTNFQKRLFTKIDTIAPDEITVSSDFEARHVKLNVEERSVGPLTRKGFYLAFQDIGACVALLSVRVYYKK
# [3] = molecular target: T1, EphA2 ligand binding domain …; experiment: ITC
# [4] = dose equivalent to […] of PTX (targefrin-PTX 10 mg/Kg, targefrin-dimer-PTX 17 mg/kg), IV days 1, 4, 8, 11, 15, 18, compared to untreated and PTX groups
molecule,measurement,setting,value
"CC(=O)O[C@H]1C(=O)[C@@]2(C)[C@H]([C@H](OC(=O)c3ccccc3)[C@]3(O)C[C@H](OC(=O)[C@H](O)[C@@H](NC(=O)c4ccccc4)c4ccccc4)C(C)=C1C3(C)C)[C@]1(OC(C)=O)CO[C@@H]1C[C@@H]2O [PTX, paclitaxel, reference compound]",mice found dead after the 2nd dose,[1],2 of 3
"CC(=O)O[C@H]1C(=O)[C@@]2(C)[C@H]([C@H](OC(=O)c3ccccc3)[C@]3(O)C[C@H](OC(=O)[C@H](OC(=O)CCCCCn4cc(CCCC(=O)NCCCC[C@H](NC(=O)CNC(=O)[C@H](CCCCNC(=O)CNC(=O)[C@@H]5CCCN5C(=O)[C@@H](CCCNC(=N)N)NC(=O)[C@@H](Cc5ccccc5)NC(=O)[C@H]5CCCN5C(=O)[C@H](NC(=O)[C@@H](C)NC(=O)[C@@H](CC(=O)O)NC(=O)[C@@H]5CCCN5C(=O)[C@H](Cc5ccc(-c6ccccc6C(F)(F)F)cc5)NC(=O)[C@H](C)NC(=O)[C@H](CC(C)C)NC(=O)[C@H](Cc5ccc(N)cc5)NC(=O)CN5CCNCC5)C5CCCCC5)NC(=O)CNC(=O)[C@@H]5CCCN5C(=O)[C@H](CCCNC(=N)N)NC(=O)[C@H](Cc5ccccc5)NC(=O)[C@@H]5CCCN5C(=O)[C@@H](NC(=O)[C@H](C)NC(=O)[C@H](CC(=O)O)NC(=O)[C@@H]5CCCN5C(=O)[C@H](Cc5ccc(-c6ccccc6C(F)(F)F)cc5)NC(=O)[C@@H](C)NC(=O)[C@@H](CC(C)C)NC(=O)[C@@H](Cc5ccc(N)cc5)NC(=O)CN5CCNCC5)C5CCCCC5)C(N)=O)nn4)[C@@H](NC(=O)c4ccccc4)c4ccccc4)C(C)=C1C3(C)C)[C@]1(OC(C)=O)CO[C@@H]1C[C@@H]2O [targefrin-dimer-PTX, [PiperazAcAcid-(2-NH2-Phe)-L-A-(2-CF3-Bip)-PD-A-Chg-PFRPG]2-KGK-(Linker)-PTX]",antitumor effect (tumor volume),MIA PaCa-2 tumors; [4],significant antitumor effect
same,antitumor effect (tumor volume),"MIA PaCa-2 tumors; lower dose 10 mg/kg, equivalent to 1.5 mg/kg of PTX, compared to PTX […] group",more effective than the PTX treated group
PiperazAcAcid-(2-NH2-Phe)-L-A-(2-CF3-Bip)-PD-A-Chg-PFRPG-K-(Linker)-PTX (XLAXPDAXPFRPGK; not fully specified; non-natural residues) [targefrin-PTX],antitumor effect (tumor volume),MIA PaCa-2 tumors; [4],significant antitumor effect
"dimeric targefrin agent 29 (n = 2, β-Ala spacer) (also: branching Lys carries a second identical arm (dimer)) peptide: {Acetyl(2-(piperazin-1-yl))}-[Phe(2-NH2)]LA[2‑CF3‑Bip]PDA[Chg]PFRP[βAla] Lys-NH2",IC50,[2],7.6 nM
"dimeric targefrin agent 30 (n = 3, GABA spacer) (also: branching Lys carries a second identical arm (dimer)) peptide: {Acetyl(2-(piperazin-1-yl))}-[Phe(2-NH2)]LA[2‑CF3‑Bip]PDA[Chg]PFRP[GABA] Lys-NH2",IC50,[2],5.3 nM
"targefrin-dimer (agent 28, n = 1, Gly-Lys linker) (branching Lys that carries one arm on each of its two amines; C-terminal CONH2; N-terminal PiperazAcAcid cap; X1 = 2-NH2-Phe; X4 = 2-CF3-Bip; X8 = Chg; the C-terminal Gly is joined to an amine of the branching Lys) peptide: XLAXPDAXPFRPG K",IC50,[2],6.5 nM
"XLAXPDAXPFRP (N-terminal PiperazAcAcid cap; X1 = 2NH2-Phe; X4 = 2-CF3-Bip; X8 = Chg; C-terminal CONH2, also called targefrin monomer; monomeric version of targefrin) [targefrin (agent 27)]",-TΔS,[3],9.7 kcal/mol
same,ΔH,[3],-20.2 kcal/mol
